{"source": "paper PMC10907699", "about": "“The IRE1β-mediated unfolded protein response is repressed by the chaperone AGR2 in mucin producing cells” (The EMBO Journal, 2023)", "parents": {"B1": {"name": "mouse AGR2 (21-175), wild-type [mouse] / MBP-hIRE1b_LD_(35-428)-AviTag-His7 [modified: biotin on the AviTag (endogenous biotinylation of a fraction of the protein in E. coli); biotin on the AviTag (endogenous biotinylation of a fraction of … (parent complex)", "chain 1": "KDTTVKSGAKKDPKDSRPKLPQTLSRGWGDQLIWTQTYEEALYRSKTSNRPLMVIHHLDECPHSQALKKVFAEHKEIQKLAEQFVLLNLVYETTDKHLSPDGQYVPRIVFVDPSLTVRADITGRYSNRLYAYEPSDTALLYDNMKKALKLLKTEL", "chain 2": "LRPENLLLVSTLDGSLHALSKQTGDLKWTLRDDPVIEGPMYVTEMAFLSDPADGSLYILGTQKQQGLMKLPFTIPELVHASPCRSSDGVFYTGRKQDAWFVVDPESGETQMTLTTEGPSTPRLYIGRTQYTVTMHDPRAPALRWNTTYRRYSAPPMDGSPGKYMSHLASCGMGLLLTVDPGSGTVLWTQDLGVPVMGVYTWHQDGLRQLPHLTLARDTLHFLALRWGHIRLPASGPRDTATLFSTLDTQLLMTLYVGKDETGFYVSKALVHTGVALVPRGLTLAPADGPTTDEVTLQVSGEREGSPSTAVRYPSGSVALPSQWLLIGHHELPPVLHTTMLRVHPTLGSGTAETRPPENTQAPAFFLELLSLSREKLWDSELHPEEKTPDSYLGL"}}}
{"variants_of": "B1", "experiment": "BLI; HK buffer supplemented with 0.05% Triton X-100 and 1 mM TCEP; 30 °C; IRE1β LD probe immobilised on streptavidin biosensors; parent: 19 nM", "units": {"screen value": "µM"}}
{"variant": "chain 1 KDTTVKSGAKKDPKDSRPKLPQTLSRGWGDQLIWTQTYEEALYRSKTSNRPLMVIHHLDEEPHSQALKKVFAEHKEIQKLAEQFVLLNLVYETTDKHLSPDGQYVPRIVFVDPSLTVRADITGRYSNRLYAYEPSDTALLYDNMKKALKLLKTEL", "note": "[chain 1 C61E]", "screen value": 78.5}
{"variant": "chain 1 KDTTVKSGAKKDPKDSRPKLPQTLSRGWGDQLIWTQTYEEALYRSKTSNRPLMVIHHLDESPHSQALKKVFAEHKEIQKLAEQFVLLNLVYETTDKHLSPDGQYVPRIVFVDPSLTVRADITGRYSNRLYAYEPSDTALLYDNMKKALKLLKTEL", "note": "[chain 1 C61S]", "screen value": 124}
{"variants_of": "B1", "experiment": "BLI; 90 µM AGR2 variant (highest concentration point); HK buffer supplemented with 0.05% Triton X-100 and 1 mM TCEP; 30 °C; parent: 0.6; read off a plot", "units": {"response": "nm"}}
{"variant": "chain 1 KDTTVKSGAKKDPKDSRPKLPQTLSRGWGDQLIWTQTYEEALYRSKTSNRPLMVIHHLDEEPHSQALKKVFAEHKEIQKLAEQFVLLNLVYETTDKHLSPDGQYVPRIVFVDPSLTVRADITGRYSNRLYAYEPSDTALLYDNMKKALKLLKTEL", "note": "[chain 1 C61E]", "response": "~0.23"}
{"variant": "chain 1 KDTTVKSGAKKDPKDSRPKLPQTLSRGWGDQLIWTQTYEEALYRSKTSNRPLMVIHHLDESPHSQALKKVFAEHKEIQKLAEQFVLLNLVYETTDKHLSPDGQYVPRIVFVDPSLTVRADITGRYSNRLYAYEPSDTALLYDNMKKALKLLKTEL", "note": "[chain 1 C61S]", "response": "~0.3"}
